This data set has as its target T1, APG09980-L16-nAPG07433.1 cytosine base editor (synthetic).
T1 chain: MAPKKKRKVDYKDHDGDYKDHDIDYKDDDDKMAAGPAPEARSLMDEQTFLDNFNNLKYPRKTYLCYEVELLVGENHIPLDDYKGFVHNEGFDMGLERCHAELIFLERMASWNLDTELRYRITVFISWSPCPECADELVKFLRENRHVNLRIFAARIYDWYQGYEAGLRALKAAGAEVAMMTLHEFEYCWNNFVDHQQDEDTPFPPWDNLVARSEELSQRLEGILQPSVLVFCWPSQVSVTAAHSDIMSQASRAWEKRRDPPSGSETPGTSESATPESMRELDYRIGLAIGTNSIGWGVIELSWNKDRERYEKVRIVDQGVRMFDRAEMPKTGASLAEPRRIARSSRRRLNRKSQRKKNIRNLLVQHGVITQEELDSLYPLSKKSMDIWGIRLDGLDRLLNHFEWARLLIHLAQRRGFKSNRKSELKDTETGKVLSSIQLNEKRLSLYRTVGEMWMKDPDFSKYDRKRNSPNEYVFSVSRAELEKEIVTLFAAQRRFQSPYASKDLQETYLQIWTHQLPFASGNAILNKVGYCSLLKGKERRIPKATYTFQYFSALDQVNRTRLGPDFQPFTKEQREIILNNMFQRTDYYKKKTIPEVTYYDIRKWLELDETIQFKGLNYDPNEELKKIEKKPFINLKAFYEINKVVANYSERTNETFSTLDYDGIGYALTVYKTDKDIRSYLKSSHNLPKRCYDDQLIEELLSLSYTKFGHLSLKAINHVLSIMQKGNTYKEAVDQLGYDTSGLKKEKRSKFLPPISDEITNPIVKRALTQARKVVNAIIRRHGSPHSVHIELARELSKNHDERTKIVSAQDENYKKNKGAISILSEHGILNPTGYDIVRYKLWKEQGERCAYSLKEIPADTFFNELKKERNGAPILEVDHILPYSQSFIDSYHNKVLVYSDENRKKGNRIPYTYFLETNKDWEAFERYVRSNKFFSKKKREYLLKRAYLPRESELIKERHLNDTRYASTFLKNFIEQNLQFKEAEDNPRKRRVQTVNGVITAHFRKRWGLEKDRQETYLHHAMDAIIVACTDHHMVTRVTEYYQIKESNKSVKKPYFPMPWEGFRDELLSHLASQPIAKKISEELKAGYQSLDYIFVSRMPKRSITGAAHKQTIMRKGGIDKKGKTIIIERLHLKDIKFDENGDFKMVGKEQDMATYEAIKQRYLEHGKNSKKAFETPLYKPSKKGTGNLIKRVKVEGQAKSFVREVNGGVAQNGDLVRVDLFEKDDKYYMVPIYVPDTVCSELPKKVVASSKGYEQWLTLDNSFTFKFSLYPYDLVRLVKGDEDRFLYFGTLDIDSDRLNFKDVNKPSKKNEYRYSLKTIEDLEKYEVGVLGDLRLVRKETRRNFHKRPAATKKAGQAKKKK
Nature of the data set: cell_activity; HEK293FT; PAM SEQ 152. The note with it: tags: SV40 NLS, 3xFLAG N-term; nucleoplasmin NLS C-term. Summed up:
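Editing read out by next-generation sequencing (MiSeq 2×250) of PCR amplicons spanning the target site, analysed for INDELs or % cytosine conversion per position (position 1 nearest PAM).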

B1: SGN000169 sgRNA ; SGN000169 target (ssRNA ; dsDNA)
RNA: CACAUCUCGAGCAAGACGUUGUCAUAGUUCCAUUAAAGCCAAAAGUGGCUUUGAUGUUUCUAUGAUAAGGGUUUCGACCCGUGGCGUCGGGGAUCGCCUGCCCAUUGAAAUGGGCUUCUCCCCAUUUAUU
DNA 1: CACATCTCGAGCAAGACGTT
DNA 2: AACGTCTTGCTCGAGATGTG
The molecule B1 returned an activity of 24.8 % mutated reads.

B2: SGN000930 sgRNA ; SGN000930 target (ssRNA ; dsDNA)
RNA: GAACAACUCAAAUGGAAAUGAAUAUGUCAUAGUUCCAUGAAAGCCAAAAGUGGCUUUGAUGUUUCUAUGAUAAGGGUUUCGGCCCGUGGCGUCGGGGAUCGCCUGCCCAUUCCGAUGGGCUUCUCCCCAUUUAUU
DNA 1: GAACAACTCAAATGGAAATGAATAT
DNA 2: ATATTCATTTCCATTTGAGTTGTTC
The molecule B2 gave an activity of 25.2 % mutated reads.
